Data published in patent publication US20230242577A1 (UBIPROTEIN, published 2023).

B1: pcDNA3-myc-interferon-β WT (ligand)
chain: MSYNLLGFLQRSSNFQCQKLLWQLNGRLEYCLKDRMNFDIPEEIKQLQQFQKEDAALTIYEMLQNIFAIFRQDSSSTGWNETIVENLLANVYHQINHLKTVLEEKLEKEDFTRGKLMSSLHLKRYYGRILHYLKAKEYSHCAWTIVRVEILRNFYFINRLTGYLRN
notes: also called IFN-β; human interferon-β; not shown: myc tag of the pcDNA3-myc vector
B2: pcDNA3-myc-β-trophin WT (ligand)
chain: APMGGPELAQHEELTLLFHGTLQLGQALNGVYRTTEGRLTKARNSLGLYGRTIELLGQEVSRGRDAAQELRASLLETQMEEDILQLQAEATAEVLGEVAQAQKVLRDSVQRLEVQLRSAWLGPAYREFEVLKAHADKQSHILWALTGHVQRQRREMVAQQHRLRQIQERLHTAALPA
notes: also called human β-trophin; not shown: myc tag of the pcDNA3-myc vector
B3: pCMV3-C-myc-VEGFA WT (ligand)
chain: APMAEGGGQNHHEVVKFMDVYQRSYCHPIETLVDIFQEYPDEIEYIFKPSCVPLMRCGGCCNDEGLECVPTEESNITMQIMRIKPHQGQHIGEMSFLQHNKCECRPKKDRARQEKKSVRGKGKGQKRKRKKSRPCGPCSERRKHLFVQDPQTCKCSCKNTDSRCKARQLELNERTCRCDKPRR
notes: also called vascular endothelial growth factor A; human VEGFA; not shown: myc tag of the pCMV3-C-myc vector
B4: pcDNA3-myc-GLP-1 WT (ligand)
chain: HAEGTFTSDVSSYLEGQAAKEFIAWLVKGRG
notes: also called glucagon-like peptide-1; human GLP-1; not shown: myc tag of the pcDNA3-myc vector
B5: pcDNA3-myc-G-CSF WT (ligand)
chain: TPLGPASSLPQSFLLKCLEQVRKIQGDGAALQEKLVSECATYKLCHPEELVLLGHSLGIPWAPLSSCPSQALQLAGCLSQLHSGLFLYQGLLQALEGISPELGPTLDTLQLDVADFATTIWQQMEELGMAPALQPTQGAMPAFASAFQRRAGGVLVASHLQSFLEVSYRVLRHLAQP
notes: also called human G-CSF; not shown: myc tag of the pcDNA3-myc vector
B6: pCMV3-C-myc-prepro-GHRL WT (ligand)
chain: GSSFLSPEHQRVQQRKESKKPPAKLQPRALAGWLRPEDGGQAEGAEDEMEVRFNAPFDVGIKLSGVQYQQHSQALGKFLQDILWEEAKEAPADK
notes: also called Ghrelin/obestatin preprohormone; appetite stimulating hormone precursor; not shown: myc tag of the pCMV3-C-myc vector

Target: T1, HA-ubiquitin (from pMT123-HA-ubiquitin) (UniProt P0CG47 1-76)
T1 construct: one ubiquitin unit is residues 1-76; not shown: HA tag of pMT123-HA-ubiquitin
Assay: anti-myc IP, anti-HA blot, HEK 293T co-transfected with HA-ubiquitin (ubiquitination)

binding result | Binder
binds | B1
binds | B2
binds | B3
binds | B4
binds | B5
binds | B6
